According to patent US20040143859A1 (SANKYO, published 2004):

Biological target: the molecule itself
Assay: SDS-PAGE, reducing (60 KD) against non-reducing (120 KD)
Experimental: The two protein peaks (6 and 7) with OCIF activity were subjected to SDS-polyacrylamide gel electrophoresis under reducing and non-reducing conditions. Briefly, 20 μl of each peak fraction was concentrated under vacuum and dissolved in 1.5 μl of 10 mM Tris-HCl, pH 8, 1 mM EDTA, 2.5% SDS, 0.01% bromophenol blue, and incubated at 37° C. overnight under non-reducing conditions or under reducing conditions (with 5% of 2-mercaptoethanol). Each 1.0 μl of sample was then analyzed by SDS-polyacrylamide gel electrophoresis with a gradient gel of 10-15% acrylamide (Pharmacia Co.) and an electrophoresis-device (Fast System, Pharmacia Co.). The following molecular weight marker proteins were used to calculate molecular weight:phosphorylase b (94 kD), bovine serum albumin (67 kD), ovalbumin (43 kD), carbonic anhydrase (30 kD), trypsin inhibitor (20.0 kD), and lactalbumin (14.4 kD). After electrophoresis, protein bands were visualized by silver stain using Phast Silver Stain Kit.

B1: osteoclastogenesis inhibitory factor (OCIF), natural, purified from conditioned medium of human fibroblast IMR-90 (other)
chain: ETFPPKYLHYDEETSHQLLCDKCPPGTYLKQHCTAKWKTVCAPCPDHYYTDSWHTSDECLYCSPVCKELQYVKQECNRTHNRVCECKEGRYLEIEFCLKHRSCPPGFGVVQAGTPERNTVCKRCPDGFFSNETSSKAPCRKHTNCSVFGLLLTQKGNATHDNICSGNSESTQKCGIDVTLCEEAFFRFAVPTKFTPNWLSVLVDNLPGTKVNAESVERIKRQHSSQEQTFQLLKLWKHQNKDQDIVKKIIQDIDLCENSVQRHIGHANLTFEQLRSLMESLPGKKVGAEDIEKTIKACKPSDQILKLLSLWRIKNGDQDTLKGLMHALKHSKTYHFPKTVTQSLKKTIRFLHSFTMYKLYQKLFLEMIGNQVQSVKISCL
modifications: N-terminus blocked (the filing says the N-terminal residue may be converted to pyroglutamine); N-linked sugar chains
notes: Secreted glycoprotein found as a 60 kD monomer and a 120 kD homodimer; also called nOCIF; natural OCIF
B1: binds.
